# Assay results from US9618524B2, “Method, composition, isolation and identification of a plaque particle and related biomarker” (Plaxgen Inc., priority 2012, dated 2017).
# How the values were obtained:
# Assay in all cases: Mass spectroscopy proteomics, semi-quantitative binding affinity of serum proteins (plaqueproteome, Table 2)
# Settings in all cases: higher number = stronger affinity
# [1] = target: T1, Abeta-42 plaque particles (Homo sapiens, UniProt P05067)
# T1 construct: Abeta 1-42
# Summary of the method: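 AD patient serum or plasma (50% in PBS) was incubated with Abeta-42 aggregates (30 μg) for 1 h at 37 °C, then stained with Thioflavin S for 30 min. Labeled particles were FACS-sorted, trypsin/Lys-C digested overnight and analyzed by MS/MS. Sequest searched human UniProt; Scaffold/Protein Prophet validated the identifications.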
# [2] = system: High Density cholesterol (Chl Large) plaque particles; parameters: species or system human
# Summary of the method: (§1)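 Serum or plasma from atherosclerotic subjects, diluted to 50% in PBS, was incubated with cholesterol aggregates (30 μg per 1 mL reaction) at 37° C for 1 hr. Small and large cholesterol plaque particles were sorted by flow cytometry gating, trypsin-digested and analysed by MS/MS against a human UniProt database.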
# [3] = system: Low density cholesterol (Chl small) plaque particles; parameters: species or system human
# Summary of the method: as §1
# [4] = target: T2, alpha-synuclein plaque particles (Homo sapiens, UniProt P37840)
# T2 construct: 140 amino acids polypeptide
# Summary of the method: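 AD-subject plasma or serum (800 μL of 50%) mixed with 30 μg preformed alpha-synuclein aggregates for 1 h at 37 °C; Thioflavin S-positive particles isolated by flow sorting. After reduction, acrylamide alkylation and overnight tryptic digestion, serum proteins identified by MS/MS with Sequest and Scaffold.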
# Tau plaque particles = system: Tau plaque particles; parameters: species or system human
# Summary of the method: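 Serum or plasma proteins captured on Thioflavin S-labelled Tau plaque particles (Tau-74, Tau-275 oligomers preformed in PBS at 37° C for 2 h; 1 h co-incubation at 37° C) were isolated by FACS sorting, then tryptically digested and identified by MS/MS (Sequest, human UniProt, strict trypsin).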
Molecule,Semi-quantitative analysis of proteins binding to different plaque particles: Abeta-42 [1],Semi-quantitative analysis of proteins binding to different plaque particles: Chl Large [2],Semi-quantitative analysis of proteins binding to different plaque particles: Chl small [3],Semi-quantitative analysis of proteins binding to different plaque particles: Synuclein [4],Semi-quantitative analysis of proteins binding to different plaque particles: Tau (Tau plaque particles)
Protein S100-A7 (protein) SNTQAERSIIGMIDMFHKYTRRDDKIEKPSLLTMMKENFPNFLSACDKKGTNYLADVFEKKDKNEDKKIDFSEFLSLLGDIATDYHKQSHGAAPCSGGSQ,2,0,0,0,0
Protein-glutamine gamma-glutamyltransferase E (protein) AALGVQSINWQTAFNRQAHHTDKFSSQELILRRGQNFQVLMIMNKGLGSNERLEFIVSTGPYPSESAMTKAVFPLSNGSSGGWSAVLQASNGNTLTISISSPASAPIGRYTMALQIFSQGGISSVKLGTFILLFNPWLNVDSVFMGNHAEREEYVQEDAGIIFVGSTNRIGMIGWNFGQFEEDILSICLSILDRSLNFRRDAATDVASRNDPKYVGRVLSAMINSNDDNGVLAGNWSGTYTGGRDPRSWNGSVEILKNWKKSGFSPVRYGQCWVFAGTLNTALRSLGIPSRVITNFNSAHDTDRNLSVDVYYDPMGNPLDKGSDSVWNFHVWNEGWFVRSDLGPSYGGWQVLDATPQERSQGVFQCGPASVIGVREGDVQLNFDMPFIFAEVNADRITWLYDNTTGKQWKNSVNSHTIGRYISTKAVGSNARMDVTDKYKYPEGSDQERQVFQKALGKLKPNTPFAATSSMGLETEEQEPSIIGKLKVAGMLAVGKEVNLVLLLKNLSRDTKTVTVNMTAWTIIYNGTLVHEVWKDSATMSLDPEEEAEHPIKISYAQYEKYLKSDNMIRITAVCKVPDESEVVVERDIILDNPTLTLEVLNEARVRKPVNVQMLFSNPLDEPVRDCVLMVEGSGLLLGNLKIDVPTLGPKEGSRVRFDILPSRSGTKQLLADFSCNKFPAIKAMLSIDVAE,2,0,0,0,0
Isoform B of Fibulin-1 (protein) DVLLEACCADGHRMATHQKDCSLPYATESKECRMVQEQCCHSQLEELHCATGISLANEQDRCATPHGDNASLEATFVKRCCHCCLLGRAAQAQGQSCEYSLMVGYQCGQVFQACCVKSQETGDLDVGGLQETDKIIEVEEEQEDPYLNDRCRGGGPCKQQCRDTGDEVVCSCFVGYQLLSDGVSCEDVNECITGSHSCRLGESCINTVGSFRCQRDSSCGTGYELTEDNSCKDIDECESGIHNCLPDFICQNTLGSFRCRPKLQCKSGFIQDALGNCIDINECLSISAPCPIGHTCINTEGSYTCQKNVPNCGRGYHLNEEGTRCVDVDECAPPAEPCGKGHRCVNSPGSFRCECKTGYYFDGISRMCVDVNECQRYPGRLCGHKCENTLGSYLCSCSVGFRLSVDGRSCEDINECSSSPCSQECANVYGSYQCYCRRGYQLSDVDGVTCEDIDECALPTGGHICSYRCINIPGSFQCSCPSSGYRLAPNGRNCQDIDECVTGIHNCSINETCFNIQGGFRCLAFECPENYRRSAATQKSKKGRQNTPAGSSKEDCRVLPWKQGLEDTHLDA,0,3,3,1,0
Junction plakoglobin (protein) MEVMNLMEQPIKVTEWQQTYTYDSGIHSGANTCVPSVSSKGIMEEDEACGRQYTLKKTTTYTQGVPPSQGDLEYQMSTTARAKRVREAMCPGVSGEDSSLLLATQVEGQATNLQRLAEPSQLLKSAIVHLINYQDDAELATRALPELTKLLNDEDPVVVTKAAMIVNQLSKKEASRRALMGSPQLVAAVVRTMQNTSDLDTARCTTSILHNLSHHREGLLAIFKSGGIPALVRMLSSPVESVLFYAITTLHNLLLYQEGAKMAVRLADGLQKMVPLLNKNNPKFLAITTDCLQLLAYGNQESKLIILANGGPQALVQIMRNYSYEKLLWTTSRVLKVLSVCPSNKPAIVEAGGMQALGKHLTSNSPRLVQNCLWTLRNLSDVATKQEGLESVLKILVNQLSVDDVNVLTCATGTLSNLTCNNSKNKTLVTQNSGVEALIHAILRAGDKDDITEPAVCALRHLTSRHPEAEMAQNSVRLNYGIPAIVKLLNQPNQWPLVKATIGLIRNLALCPANHAPLQEAAVIPRLVQLLVKAHQDAQRHVAAGTQQPYTDGVRMEEIVEGCTGALHILARDPMNRMEIFRLNTIPLFVQLLYSSVENIQRVAAGVLCELAQDKEAADAIDAEGASAPLMELLHSRNEGTATYAAAVLFRISEDKNPDYRKRVSVELTNSLFKHDPAAWEAAQSMIPINEPYGDDMDATYRPMYSSDVPLDPLEMHMDMDGDYPIDTYSDGLRPPYPTADHMLA,2,0,0,0,0
Isoform C of Fibulin-1 (protein) DVLLEACCADGHRMATHQKDCSLPYATESKECRMVQEQCCHSQLEELHCATGISLANEQDRCATPHGDNASLEATFVKRCCHCCLLGRAAQAQGQSCEYSLMVGYQCGQVFQACCVKSQETGDLDVGGLQETDKIIEVEEEQEDPYLNDRCRGGGPCKQQCRDTGDEVVCSCFVGYQLLSDGVSCEDVNECITGSHSCRLGESCINTVGSFRCQRDSSCGTGYELTEDNSCKDIDECESGIHNCLPDFICQNTLGSFRCRPKLQCKSGFIQDALGNCIDINECLSISAPCPIGHTCINTEGSYTCQKNVPNCGRGYHLNEEGTRCVDVDECAPPAEPCGKGHRCVNSPGSFRCECKTGYYFDGISRMCVDVNECQRYPGRLCGHKCENTLGSYLCSCSVGFRLSVDGRSCEDINECSSSPCSQECANVYGSYQCYCRRGYQLSDVDGVTCEDIDECALPTGGHICSYRCINIPGSFQCSCPSSGYRLAPNGRNCQDIDECVTGIHNCSINETCFNIQGGFRCLAFECPENYRRSAATRCERLPCHENRECSKLPLRITYYHLSFPTNIQAPAVVFRMGPSSAVPGDSMQLAITGGNEEGFFTTRKVSPHSGVVALTKPVPEPRDLLLTVKMDLSRHGTVSSFVAKLFIFVSAEL,0,1,2,1,0
Ig heavy chain V-III region WEA (protein) EVQLVESGGGLVQPGGSLRLSCAASGFTFSSYEMNWVRQAPGKGLEWVSYISSSGSTIYYADSVKGRFTISRDNAKNSLYLQMNSLRAEDTAVYYCAR,2,1,1,1,1
Isoform 2 of Glycogen synthase kinase-3 (protein) MSGRPRTTSFAESCKPVQQPSAFGSMKVSRDKDGSKVTTVVATPGQGPDRPQEVSYTDTKVIGNGSFGVVYQAKLCDSGELVAIKKVLQDKRFKNRELQIMRKLDHCNIVRLRYFFYSSGEKKDEVYLNLVLDYVPETVYRVARHYSRAKQTLPVIYVKLYMYQLFRSLAYIHSFGICHRDIKPQNLLLDPDTAVLKLCDFGSAKQLVRGEPNVSYICSRYYRAPELIFGATDYTSSIDVWSAGCVLAELLLGQPIFPGDSGVDQLVEIIKVLGTPTREQIREMNPNYTEFKFPQIKAHPWTKDSSGTGHFTSGVRVFRPRTPPEAIALCSRLLEYTPTARLTPLEACAHSFFDELRDPNVKLPNGRDTPALFNFTTQELSSNPPLATILIPPHARIQAAASTPTNATAASDANTGDRGQTNNAASASASNST,4,0,0,0,0
